Experiments:
[1] = molecular target: T1, angiotensin converting enzyme-2 (ACE-2), full-length ACE-2 protein (UniProt Q9BYF1 18-740); assay: fluorescence polarization; FITC-tagged ACIS peptide titrated with hACE-2
T1 construct: also called ACE-2 enzyme; ACE-2 receptor

[2] = molecular target: T1, angiotensin converting enzyme-2 …; assay: FITC-labeled ACIS (FIG. 4B)

T1 sequence (Q9BYF1 18-740 limits assumed): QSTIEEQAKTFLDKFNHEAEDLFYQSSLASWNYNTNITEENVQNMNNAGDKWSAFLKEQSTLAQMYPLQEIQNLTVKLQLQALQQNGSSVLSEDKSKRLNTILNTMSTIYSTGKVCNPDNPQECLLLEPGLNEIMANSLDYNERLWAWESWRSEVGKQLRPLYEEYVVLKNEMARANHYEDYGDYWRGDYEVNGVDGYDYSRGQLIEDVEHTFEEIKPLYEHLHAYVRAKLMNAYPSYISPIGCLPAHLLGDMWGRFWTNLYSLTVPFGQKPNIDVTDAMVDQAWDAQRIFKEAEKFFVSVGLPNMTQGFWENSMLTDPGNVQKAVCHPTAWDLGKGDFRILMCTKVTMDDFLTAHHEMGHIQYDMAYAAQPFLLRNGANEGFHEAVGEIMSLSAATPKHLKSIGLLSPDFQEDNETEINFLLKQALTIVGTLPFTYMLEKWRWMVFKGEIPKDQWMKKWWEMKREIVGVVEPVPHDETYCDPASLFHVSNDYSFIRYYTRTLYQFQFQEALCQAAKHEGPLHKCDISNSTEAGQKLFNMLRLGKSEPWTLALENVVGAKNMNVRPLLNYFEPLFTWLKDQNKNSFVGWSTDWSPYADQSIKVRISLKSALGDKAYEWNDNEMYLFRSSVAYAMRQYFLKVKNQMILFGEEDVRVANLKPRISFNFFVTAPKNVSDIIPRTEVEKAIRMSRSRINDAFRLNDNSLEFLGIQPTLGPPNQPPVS

B1: KEPTIDE2 (FITC tagged KEPTIDE; ACIS peptide tagged with FITC probe at C-terminal end) (peptide)
peptide: FQPTNGVGYQPYGK
modifications: FITC at the C-terminal end (on the C-terminal lysine tag according to paragraph 109)
notes: also called FITC-tagged ACIS peptide; FITC-labeled ACIS
- EC50 (read off the curve) [1]: ~6 nM
- Kd [1]: 6.38 nM
- IC50 [2]: 24.5 nM

— patent US11078242 (SOTIRA COVID, dated 2021)
